Measured values taken from US20250243269A1 (ICAHN SCHOOL OF MEDICINE AT MOUNT SINAI, published 2025).

Molecular target: T1, human FSH (follicle stimulating hormone) (human, UniProt P01215 25-116; P01225 19-129)
T1 construct: also called purified human FSH; human FSH in PDB ID 4AY9
Experiment: thermal shift assay (Sypro-Orange), antibody 1.5 µg/µL with or without human FSH 0.5 µg/µL
Procedure: Next, 215 different anti-FSH antibody formulations comprising different combinations of salt, detergent and sugars were tested for thermal stability. The thermal shift assay used a fluorescent reporter, Sypro-Orange (Protein Thermal Shift Dye Kit, ThermoFisher, Catalog #4461146), to detect hydrophobic domains that are exposed following the heat-induced unfolding of globular proteins. anti-FSH antibodies (1.5 μg/μL), either in a test formulation or in PBS, were incubated with or without human FSH (0.5 μg/μL) at room temperature for 30 minutes, with fluorescence captured sequentially at 0.3° C. increments using a StepOne Plus Thermocycler (Applied Biosystems). Tm was calculated based on the inflection point of the melt curve, and thermal shift was derived from ΔTₘ=TₘA−TₘB.
This testing yielded an anti-FSH antibody formulation comprising a stock solution of 2 mg/mL in 20 mM phosphate, 0.001% (v/v) Tween-20, 1 mM NaCl, and 260 mM sucrose (pH=6.58). […] The binding of formulated anti-FSH antibodies to purified human FSH was tested. A ΔTₘ of 3.1° C. of the Fab, and not the Fc region, established greater thermal stability due to FSH binding (FIG. 8C).

T1 sequence (P01215 25-116, chain 1 of 2): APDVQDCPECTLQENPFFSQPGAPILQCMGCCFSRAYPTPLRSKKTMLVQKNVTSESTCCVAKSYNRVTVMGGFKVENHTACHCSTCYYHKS
T1 sequence (P01225 19-129, chain 2 of 2): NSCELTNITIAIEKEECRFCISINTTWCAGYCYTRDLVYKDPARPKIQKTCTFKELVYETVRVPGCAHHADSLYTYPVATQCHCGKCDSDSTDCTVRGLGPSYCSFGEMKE

B1: humanized monoclonal anti-FSH antibody Hu6 (antibody, V domains shown)
VH: QVQLQESGPGLVKPSQTLSLTCTVSGFSITSDYAWNWIRQPPGKGLEWIGSIFSSGSINYNPSLKSRVTISRDTSKNQFSLKLSSVTAADTAVYYCARGGTGTDYWGQGTLVTVSS
VL: DIQMTQSPSSLSASVGDRVTITCRASQDISNYLSWYQQKPGKAIKLLIYYTSRLHSGVPSRFSGSGSGTDYTLTISSLQPEDFATYFCQQGHTLPPTFGGGTKVEIK
notes: also called MS-Hu6; formulated anti-FSH antibodies
- ΔTm of the Fab region on FSH binding: 3.1 °C
